How the values were obtained:
[1] = target: T1, SulA (cysteate acyl-ACP transferase) (Alistipes finegoldii, UniProt I3YKQ4); experiment: X-ray crystal structure […] Å (SeMet-SulA); UV-Vis […] nm internal aldimine; type: binding; details: covalent, internal aldimine at Lys251
T1 construct: gene Alfi_1224
T1 sequence (I3YKQ4 1-423): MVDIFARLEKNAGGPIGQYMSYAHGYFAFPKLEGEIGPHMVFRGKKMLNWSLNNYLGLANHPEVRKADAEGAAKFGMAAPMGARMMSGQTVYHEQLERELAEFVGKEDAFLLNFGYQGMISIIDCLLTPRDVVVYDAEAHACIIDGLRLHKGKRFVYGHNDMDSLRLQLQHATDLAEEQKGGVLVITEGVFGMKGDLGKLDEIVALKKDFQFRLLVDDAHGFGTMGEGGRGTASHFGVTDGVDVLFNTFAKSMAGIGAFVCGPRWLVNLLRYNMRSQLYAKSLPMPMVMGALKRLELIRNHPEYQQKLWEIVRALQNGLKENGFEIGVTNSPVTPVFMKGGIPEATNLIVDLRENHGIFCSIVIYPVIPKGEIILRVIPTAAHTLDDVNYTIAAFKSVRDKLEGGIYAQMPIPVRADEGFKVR

[2] = target: T2, SulA (cysteate acyl-ACP transferase) (Alistipes finegoldii, UniProt I3YKQ4, K281A); experiment: UV-Vis spectral titration (external aldimine, A430); type: binding
T2 construct: gene Alfi_1224
T2 sequence (I3YKQ4 1-423 K281A): T1 sequence (I3YKQ4 1-423)
Source text: UV-Vis spectral titration (external aldimine, A430) on SulA (cysteate acyl-ACP transferase) | SulA(K281A) bound cysteate and formed the PLP-cysteate external aldimine normally

[3] = target: T1, SulA (cysteate acyl-ACP transferase); experiment: as above; type: binding
[4] = target: cysteate acyl-ACP transferase (SulA), His-tagged (Alistipes finegoldii) (UniProt I3YKQ4)
[5] = target: cysteate acyl-ACP transferase (SulA), His-tagged (Alistipes finegoldii) (UniProt I3YKQ4); experiment: SEC; calibrated HiLoad 16/600 Superdex 200 column, 200 mM NaCl, 20 mM Tris, pH 8.0; single 85 kDa species against standards
[6] = target: cysteate acyl-ACP transferase (SulA), His-tagged (Alistipes finegoldii) (UniProt I3YKQ4); experiment: AUC; sedimentation velocity, 150 mM NaCl, 1 mM DTT, 20 mM potassium phosphate buffer, pH 7.5, 20 °C, 50,000 rpm, interference optics, c(s) in SEDFIT
[7] = target: cysteate acyl-ACP transferase (SulA), His-tagged (Alistipes finegoldii) (UniProt I3YKQ4); experiment: as above; remark: listed apart in the source

Cc1ncc(COP(=O)(O)O)c(C=O)c1O [PLP]
X-ray crystal structure 2.9 Å (SeMet-SulA); UV-Vis 390 nm internal aldimine [1]: definitively identifies Lys251 as the PLP attachment site

N[C@@H](CS(=O)(=O)O)C(=O)O [cysteate]
Kd [2]: 6.11 ± 1.1 mM | Kd [3]: 4.86 ± 0.08 mM

[14C]16:0-acyl carrier protein (from UniProt P0A6A8 1-78) (natural protein)
SulA enzyme activity (formation of 3-keto[14C]capnine, TLC) against 0-200 μM [14C]16:0-ACP with 100 mM cysteate; K0.5 of an allosteric sigmoidal fit [4]: 26.7 µM

cysteate acyl-ACP transferase (SulA), His-tagged (from UniProt I3YKQ4 1-423) (enzyme)
stoichiometry N [5]: 2 | stoichiometry N [6]: 4 | stoichiometry N [7]: 2
